B1: CPEB3 Ribozyme (parent)
chain: GGGGGCCACAGCAGAAGCGUUCACGUCGCGGCCCCUGUCAGAUUCUGGUGAAUCUGCGAAUUCUGCUGU

Variants of: B1
Test: self-cleavage, relative activity (ratio to wild type); higher = more cleavage; co-transcriptional

Row | Variant | self-cleavage
1 | G5C G37C | 0.103
2 | G5C G37A | 0.119
3 | G5C G37U | 0.179
4 | G5C C45G | 0.178
5 | G5C C45U | 0.266
6 | C6A C54U | 0.67
7 | C6A A52G | 0.58
8 | C6A A52U | 0.559
9 | G5U C63G | 0.0897
10 | G5U C63A | 0.114
11 | G5U C63U | 0.24
12 | G5C G30U | 0.0983
13 | G5C G30A | 0.177
14 | G5C G30C | 0.124
15 | C6A U26G | 0.265
16 | C6A U26A | 0.256
17 | C6A C39U | 0.416
18 | C6A C39A | 0.231
19 | G5C C57G | 0.098
20 | G5C C57A | 0.0507
21 | C6A A51U | 0.545

Row | Variant | self-cleavage
22 | C6A A51G | 0.604
23 | C6A A51C | 0.458
24 | G5C U44C | 0.179
25 | G5C G31U | 0.143
26 | G5U U46C | 0.254
27 | G5U U46G | 0.321
28 | G5U U46A | 0.24
29 | C6A A8U | 0.607
30 | C6A A8C | 0.733
31 | G5C U67C | 0.254
32 | G5C U67A | 0.338
33 | G5C U67G | 0.355
34 | C6A C29A | 0.213
35 | C6A C29U | 0.234
36 | G5U G47U | 0.296
37 | G5U G47A | 0.294
38 | G5U G47C | 0.277
39 | G5C C63U | 0.207
40 | G5C C63G | 0.109
41 | G5C C63A | 0.119
42 | G5C C39A | 0.134

Row | Variant | self-cleavage
43 | G5C C39G | 0.199
44 | G5C C39U | 0.184
45 | G5U G11U | 0.098
46 | G5U C66G | 0.133
47 | G5U C66A | 0.19
48 | G5U C66U | 0.299
49 | G5U G28C | 0.0876
50 | G5U G28U | 0.0687
51 | G5U G28A | 0.046
52 | G5U A16G | 0.14
53 | G5U A16U | 0.127
54 | G5U A23G | 0.253
55 | G5U A23U | 0.402
56 | G5U A23C | 0.211
57 | G5U U36A | 0.0704
58 | G5U U36G | 0.343
59 | G5U G65A | 0.187
60 | G5U G65U | 0.0885
61 | G5U U67G | 0.615
62 | G5C U38G | 0.0921
63 | G5U C29A | 0.0808

Row | Variant | self-cleavage
64 | G5U C29G | 0.0724
65 | C6A | 0.705
66 | G5C U61A | 0.193
67 | G5C U61G | 0.153
68 | G5C U61C | 0.13
69 | G5C U62A | 0.169
70 | C6A C34U | 0.339
71 | C6A G50C | 0.594
72 | C6A G50U | 0.727
73 | G5U G14A | 0.078
74 | G5U G14U | 0.0546
75 | C6A G11U | 0.448
76 | C6A G11A | 0.536
77 | C6A G41A | 0.241
78 | C6A U43G | 0.367
79 | C6A G65U | 0.305
80 | C6A G65C | 0.157
81 | C6A G65A | 0.451
82 | G5C G25C | 0.0981
83 | G5C G25U | 0.0626
84 | G5U U69G | 0.671
